{"source": "the supplement of paper PMC12042874", "note": "± gives the uncertainty stated by the source.", "data": [{"assay": "amyloid nucleation score (Sup35N fusion, yeast selection) (log enrichment); library NNK2; higher = more nucleation; inactive = no reads after selection", "in_short": "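Nucleation score: DiMSum log enrichment of output over input reads, centred on the mode score of non-aggregating sequences. Only sequences with at least 100 input reads were kept. Reads came from Illumina sequencing of plasmid inserts before and after 7 days of growth at 30°C without adenine and uracil, in psi-negative yeast expressing Sup35N fused to peptides of 20 random codons after 24 hours of induction with 100 μM copper sulfate.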", "values": [{"substance": "TAGFRILRRHFSIGVGSRTW", "amyloid nucleation score": "inactive"}, {"substance": "ESHFCLLATVMKDNLTVGSM", "amyloid nucleation score": "-0.578 ± 0.45"}, {"substance": "YFIRRKIRMGGHLLTWSWWI", "amyloid nucleation score": "-0.104 ± 0.49"}, {"substance": "YVVGDMTFWS", "amyloid nucleation score": "-0.297 ± 1.1"}, {"substance": "ELALGIHYPFNKLYDINKGC", "amyloid nucleation score": "-1.5 ± 0.35"}, {"substance": "KRYLWTGN", "amyloid nucleation score": "-0.534 ± 0.35"}, {"substance": "WFRKGHHVVT", "amyloid nucleation score": "1.08 ± 0.41"}, {"substance": "NCRFFIADVSLYPTWFIFYF", "amyloid nucleation score": "2.82 ± 0.12"}, {"substance": "FLVNVFM", "amyloid nucleation score": "8.001 ± 0.025"}, {"substance": "SDHLCRYV", "amyloid nucleation score": "-0.095 ± 1.1"}, {"substance": "DEECTEPTWIGDEFDPLDIE", "amyloid nucleation score": "inactive"}, {"substance": "LQANWNDGPVGSSICAACSL", "amyloid nucleation score": "-0.746 ± 0.76"}, {"substance": "KFRCHGR", "amyloid nucleation score": "0.785 ± 0.62"}, {"substance": "TSCHRLWLLFMCIAGG", "amyloid nucleation score": "-0.199 ± 0.79"}, {"substance": "IVAEMW", "amyloid nucleation score": "1.75 ± 0.4"}, {"substance": "MCPDKARGTMVCTERTPRLM", "amyloid nucleation score": "0.793 ± 0.15"}, {"substance": "DSLTCCIS", "amyloid nucleation score": "3.37 ± 0.093"}, {"substance": "FSLFISKMN", "amyloid nucleation score": "-0.474 ± 1"}, {"substance": "GRCWI", "amyloid nucleation score": "1.39 ± 0.24"}, {"substance": "LMSGVLGRWLKKSSKFQESL", "amyloid nucleation score": "-0.653 ± 1.1"}, {"substance": "QIELGALNNRCGNRDGSGDW", "amyloid nucleation score": "-0.842 ± 0.35"}, {"substance": "EGLIDCCIH", "amyloid nucleation score": "inactive"}, {"substance": "NSRLRRVYAGSARGAWTYRR", "amyloid nucleation score": "1.14 ± 0.38"}, {"substance": "IVSIFSWTEIRATLG", "amyloid nucleation score": "-1.87 ± 0.55"}, {"substance": "WVGLHVR", "amyloid nucleation score": "0.525 ± 0.36"}, {"substance": "VNRDRAQLWVACITCRCNFR", "amyloid nucleation score": "8.986 ± 0.049"}, {"substance": "YYSSLTYCMLQWYSLFWWGH", "amyloid nucleation score": "0.658 ± 0.51"}, {"substance": "NSWWTVLFRFYKALSLPRAR", "amyloid nucleation score": "-0.839 ± 0.78"}, {"substance": "GKESTTKH", "amyloid nucleation score": "-0.494 ± 0.56"}, {"substance": "LSYNVLLGRIEIPWVSFSRM", "amyloid nucleation score": "3.94 ± 0.068"}, {"substance": "FSRSVKRLIVDVLRNKVCI", "amyloid nucleation score": "0.58 ± 0.54"}, {"substance": "KRKKQKFAMLYVSGNLLRRD", "amyloid nucleation score": "0.234 ± 0.28"}, {"substance": "FCDFY", "amyloid nucleation score": "-1.2 ± 0.41"}, {"substance": "SIFRWKREKAVGLYPLHQVA", "amyloid nucleation score": "-0.094 ± 0.76"}, {"substance": "HSRKFADVKSWLTTDKKRIR", "amyloid nucleation score": "0.37 ± 0.48"}, {"substance": "SYSLIVE", "amyloid nucleation score": "0.919 ± 0.48"}, {"substance": "WSFLYE", "amyloid nucleation score": "-0.548 ± 0.33"}, {"substance": "YSGKCMEDVRGQMVGGLELV", "amyloid nucleation score": "0.405 ± 0.22"}, {"substance": "SPYLMSTDKIRLSP", "amyloid nucleation score": "1.16 ± 0.44"}, {"substance": "RVVQKKQLIV", "amyloid nucleation score": "0.3 ± 0.49"}, {"substance": "RSLVDLMRGFDIV", "amyloid nucleation score": "5.62 ± 0.062"}, {"substance": "IPRFRLYANCRMFNRV", "amyloid nucleation score": "0.056 ± 0.39"}, {"substance": "SLARSTRFLYWSGNELVFIS", "amyloid nucleation score": "3.66 ± 0.082"}, {"substance": "MNYTT", "amyloid nucleation score": "-0.242 ± 0.54"}, {"substance": "YHIWRYHATSSHTFARFSSV", "amyloid nucleation score": "1.62 ± 0.51"}, {"substance": "RRIFYHEYHMRDSIH", "amyloid nucleation score": "1.7 ± 0.1"}, {"substance": "SRFGGVSTHYLARSFVDVTM", "amyloid nucleation score": "0.039 ± 0.44"}, {"substance": "THMSEDGFVL", "amyloid nucleation score": "0.072 ± 0.34"}, {"substance": "LFDGRNYF", "amyloid nucleation score": "-0.669 ± 0.46"}, {"substance": "CHANFNVG", "amyloid nucleation score": "1.58 ± 0.19"}, {"substance": "SWNELSRFLVILLFQLSRDR", "amyloid nucleation score": "-0.795 ± 0.43"}, {"substance": "VFSSFWVYKLYEFEASSNVR", "amyloid nucleation score": "-0.371 ± 0.45"}, {"substance": "FHEDRERGTIFDEFMIFRN", "amyloid nucleation score": "-0.945 ± 0.76"}, {"substance": "LRGRRRTVLPANGWCSLTAL", "amyloid nucleation score": "0.453 ± 0.28"}, {"substance": "KYTVSLVDLGCFQSKGCDST", "amyloid nucleation score": "inactive"}, {"substance": "RKLGNLLPPEY", "amyloid nucleation score": "0.499 ± 0.35"}, {"substance": "WFDKFRMCEEFAYYFFLPQW", "amyloid nucleation score": "-0.856 ± 0.63"}, {"substance": "HGYHSGTLIALYVDN", "amyloid nucleation score": "inactive"}, {"substance": "GLVSLLYGY", "amyloid nucleation score": "0.185 ± 0.34"}, {"substance": "FIYQFHVVFLVCQGHNNLYT", "amyloid nucleation score": "3.6 ± 0.071"}, {"substance": "TCGLFTA", "amyloid nucleation score": "1.2 ± 0.44"}, {"substance": "NEVSGNGLFSIFSQSGKSYY", "amyloid nucleation score": "inactive"}, {"substance": "FDVVIGMFVNLITRSKCGEW", "amyloid nucleation score": "1.61 ± 0.53"}, {"substance": "VVKYFCDHI", "amyloid nucleation score": "4.5 ± 0.07"}, {"substance": "YPVTYQLCILICTGYADKWR", "amyloid nucleation score": "-1.26 ± 0.64"}, {"substance": "IKGVRQHLTTYKGTL", "amyloid nucleation score": "-0.408 ± 0.49"}, {"substance": "YDDHDFNRAGGLTVTNVWMV", "amyloid nucleation score": "3.64 ± 0.1"}, {"substance": "RGQMRLQRRLPKLRTSGKLQ", "amyloid nucleation score": "1.49 ± 0.34"}, {"substance": "VVILTFKAVYTAKFYACCAV", "amyloid nucleation score": "-0.104 ± 0.45"}, {"substance": "ETESG", "amyloid nucleation score": "0.72 ± 0.38"}, {"substance": "FGRRYIMLRKYIDVIDLSIH", "amyloid nucleation score": "-0.843 ± 0.76"}, {"substance": "MTALSTVDWRYSAHFSS", "amyloid nucleation score": "inactive"}, {"substance": "TAKDTPCAVRIIFEFLDGLV", "amyloid nucleation score": "7.279 ± 0.056"}, {"substance": "IKSLSMRYFIRLFRY", "amyloid nucleation score": "inactive"}, {"substance": "MVIYHVPQYVRYWQP", "amyloid nucleation score": "0.017 ± 0.63"}, {"substance": "TASMGVVVSDENWE", "amyloid nucleation score": "0.633 ± 0.14"}, {"substance": "PVKTNFCENINYFIVPGFAL", "amyloid nucleation score": "inactive"}, {"substance": "VALVSGVNNTKDMSRAPNRV", "amyloid nucleation score": "-0.19 ± 0.36"}, {"substance": "ACLFWIYARRHRLAWFVFIW", "amyloid nucleation score": "-0.37 ± 0.76"}, {"substance": "VTLIRSSRVATSCHGGTLFC", "amyloid nucleation score": "3.45 ± 0.092"}, {"substance": "TWKTSLS", "amyloid nucleation score": "inactive"}, {"substance": "GIESSPFCFSLPGSATKRKQ", "amyloid nucleation score": "0.485 ± 0.36"}, {"substance": "KWKLMCDAFLS", "amyloid nucleation score": "-0.969 ± 0.48"}, {"substance": "FGLVHRIPRFVLWILSLGSG", "amyloid nucleation score": "-0.012 ± 1.1"}, {"substance": "GNSISFVYQSLICFNCDLSV", "amyloid nucleation score": "7.453 ± 0.024"}, {"substance": "GFQWLDAYLLGSFWMRMSTC", "amyloid nucleation score": "0.516 ± 0.81"}, {"substance": "HVIVMYGSIY", "amyloid nucleation score": "3.19 ± 0.12"}, {"substance": "HILMKN", "amyloid nucleation score": "-0.013 ± 0.42"}, {"substance": "IINYANLSTVVNFYIRIGYC", "amyloid nucleation score": "6.812 ± 0.028"}, {"substance": "RNWWGLSVYNSIYWCVMSRD", "amyloid nucleation score": "4.835 ± 0.043"}, {"substance": "YNGLMNISIATMC", "amyloid nucleation score": "-1.17 ± 0.74"}, {"substance": "LDILIYLKILDISFGNESCM", "amyloid nucleation score": "0.002 ± 0.17"}, {"substance": "KGFNKY", "amyloid nucleation score": "-0.911 ± 0.43"}, {"substance": "LFTVWVASVVWSCADVA", "amyloid nucleation score": "-1.34 ± 0.78"}, {"substance": "VSFYDVH", "amyloid nucleation score": "0.011 ± 1.1"}, {"substance": "MESINSVSSSNIVHRFRRGV", "amyloid nucleation score": "5.58 ± 0.077"}, {"substance": "FISSMGRVW", "amyloid nucleation score": "-1 ± 0.55"}, {"substance": "LASSKEACVHTVMAIVSVGA", "amyloid nucleation score": "2.08 ± 0.12"}, {"substance": "LLKLNGILVCLDRGVMPHDS", "amyloid nucleation score": "2.57 ± 0.092"}, {"substance": "VKWTVNEVYGCYYCTGSVYA", "amyloid nucleation score": "6.154 ± 0.042"}, {"substance": "RFVYMLVCIELVG", "amyloid nucleation score": "-0.953 ± 0.78"}, {"substance": "IPTACEHKRSPRVQPQRNSA", "amyloid nucleation score": "0.163 ± 0.4"}, {"substance": "LLCFHTHLRKAMGVTINSIS", "amyloid nucleation score": "-1.19 ± 0.49"}, {"substance": "VMLGHYTVLFGVKVRECREG", "amyloid nucleation score": "1.7 ± 0.19"}, {"substance": "DWFSTLHLIGSAS", "amyloid nucleation score": "-0.041 ± 0.63"}, {"substance": "YDNMC", "amyloid nucleation score": "-0.72 ± 0.35"}, {"substance": "RYIGGSLFFRYNIVGKRQGV", "amyloid nucleation score": "3.81 ± 0.064"}, {"substance": "QEYLLLVAAGKHVNVDKTYL", "amyloid nucleation score": "0.594 ± 0.81"}, {"substance": "QNMNLVHEIGMNRSLVFTFW", "amyloid nucleation score": "-0.167 ± 0.29"}, {"substance": "YYSLY", "amyloid nucleation score": "-0.904 ± 0.36"}, {"substance": "MNHWGMLRLGSWYRITYA", "amyloid nucleation score": "-0.367 ± 0.38"}, {"substance": "TRSPEYNCRSVEGTVSDKDK", "amyloid nucleation score": "-0.832 ± 0.49"}, {"substance": "SRYFVVAGRSLNTCVNMCCV", "amyloid nucleation score": "4.78 ± 0.069"}, {"substance": "MENLRNMAYSNC", "amyloid nucleation score": "-1.66 ± 0.61"}, {"substance": "TIFIGVRVPS", "amyloid nucleation score": "-0.224 ± 0.63"}, {"substance": "LNHCG", "amyloid nucleation score": "0.738 ± 0.55"}, {"substance": "EYVRFYLMGISWEAEKSHAL", "amyloid nucleation score": "4.23 ± 0.11"}, {"substance": "SVLQTTFVLVVGKTYNTSTD", "amyloid nucleation score": "2.94 ± 0.072"}, {"substance": "QGHISHTGLIPMLGGSL", "amyloid nucleation score": "3.23 ± 0.15"}, {"substance": "MTVLV", "amyloid nucleation score": "1.12 ± 0.26"}, {"substance": "CVSEARRIE", "amyloid nucleation score": "-0.36 ± 0.35"}, {"substance": "VFEYFRCPYIHNLLFFSAWL", "amyloid nucleation score": "1.9 ± 0.19"}, {"substance": "LLPCLPLPFMSPITARATHI", "amyloid nucleation score": "3.24 ± 0.058"}, {"substance": "SSLWSGPKVIQDY", "amyloid nucleation score": "-0.122 ± 0.28"}, {"substance": "LSGRHY", "amyloid nucleation score": "0.33 ± 0.74"}, {"substance": "SFLYLPDGTDMI", "amyloid nucleation score": "0.171 ± 0.29"}, {"substance": "ASQIDSLVRNRNCLNSTKIG", "amyloid nucleation score": "-0.23 ± 0.44"}, {"substance": "TLGREVSKVQNATSFLPMQA", "amyloid nucleation score": "0.926 ± 0.29"}, {"substance": "TTFIRLVIITPWV", "amyloid nucleation score": "2.75 ± 0.15"}, {"substance": "LTDVYMVI", "amyloid nucleation score": "-0.395 ± 0.76"}, {"substance": "WCEGHKSW", "amyloid nucleation score": "-0.817 ± 1"}, {"substance": "KSSEHRGCLICTIIAVDL", "amyloid nucleation score": "6.977 ± 0.039"}]}]}
